Measured values published in PMC5345068, “A Glycyrrhetinic Acid-Modified Curcumin Supramolecular Hydrogel for liver tumor targeting therapy” (Scientific Reports, 2017).
Read-outs that look alike come from different tables or passages of the source.

Tests used:
[1] = solubility of pro-gelators in PBS
Method: (§1) We therefore tested the gelation ability of the obtained two compounds. […] We then used a rheometer to characterize the resulting hydrogels obtained at 2 h time point. […] We then investigated the fluorescence spectra of the precursors (GA-cur and Nap-cur) and the hydrogels (GA-gel and Nap-gel).
(§2) 3 mg of GA-Cur or Nap-Cur was dissolved in 0.25 mL phosphate buffer saline (PBS) buffer solution (pH = 7.4, adjusted by 1.5 equiv. of Na2CO3). 4equiv. of glutathione (GSH) in 0.05 mL of PBS buffer (pH = 7.4, adjusted by 3.6equiv. of Na2CO3) was added to the above solution.

[2] = critical micelle concentration (CMC); assay type: physicochemical; conditions: Fig. S-7
Excerpt: Fig. S-7. The critical micelle concentration (CMC) of A) GA-cur and B) Nap-cur.
Fig. S-8. The LC-MS traces of the GA-Cur (mw=2398.78,1/ mw=1200.6) and the formed
Fig. S-9. The LC-MS traces of the Nap-Cur ([…]/ mw=1058.6) and the formed

[3] = gelation test with GSH and hydrogel stability; assay type: physicochemical; conditions: PBS pH 7.4, disulfide reduction by GSH
Method: as §1, §2

HepG2 cells [4] = conditions: 48 h
HepG2 cells [5] = assay: cellular uptake, HepG2; conditions: 25 μM, 4 h, 6-well plates, 2.5 × 10^5 cells per well, DMSO lysis, microplate reader excitation 488 nm
Method: (§3) After being incubated for 24 h in 6-well plates at a density of 2.5 × 10^5 cells per-well, HepG2 cells were treated with 2 mL growth medium containing 25 μM of Cur, GA-Cur, Nap-Cur, or GA + GA-Cur, respectively. In GA + GA-Cur group, 50 μM of GA was used to pre-treat cells for 2 hours. HepG2 cells were then rinsed for three times with PBS following with a treatment with 25 μM of GA-Cur for another 4 hours. After 4 hours’ incubation, cells were washed for three times with PBS to remove excess compounds and 500 μL of DMSO was added to each well to dissolve compounds in cells. The solution were collected after being treated with sonication for 15 min. The amount of compounds in the cells was determined by a microplate reader excitated at 488 nm. The same experiments were performed with 3T3 cells.

3T3 cells = assay: cellular uptake, 3T3; conditions: same experiment as HepG2: 25 μM, 4 h; Fig. S-15
Method: as §3

mouse NIH 3T3 cells [6] = conditions: read-out: IC50, mouse fibroblast 3T3 cells; MTT, 48 h
[7] = water; cited from earlier work
Excerpt: Curcumin (Cur), a hydrophobic polyphenol compound, is derived from the rhizomes of Curcuma longa. Cur has a wide range of therapeutic properties, such as anti-inflammation[18], anti-oxidant[19], anti-mutagenic[20], and anticancer[21] with low or no intrinsic toxicity to healthy cells. […] Fig. S-6A). […] The minimum gelation ...

HepG2 cells [8] = assay: cells; conditions: Homo sapiens, HepG2, 48 h, read-out: IC50 HepG2 mean (Table S-1)
mouse NIH 3T3 cells [9] = assay: cells; conditions: NIH3T3, 48 h, read-out: IC50, mouse fibroblast 3T3 cells

| SMILES | well solubilized in phosphate buffer saline at a concentration of [1] | critical micelle concentration (CMC) [2] | minimum gelation concentration [3] | IC50 (HepG2 cells [4]) | well solubilized in phosphate buffer saline at a concentration of ([1]; PBS pH = 7.4, 10 mg/mL = 1 wt%, optical image) | intra-cellular concentration of Cur, HepG2 (HepG2 cells [5]) | intra-cellular concentration of Cur, 3T3 (3T3 cells) | IC50 (HepG2 cells [4]; read-out: IC50 against HepG2, MTT) | IC50 (mouse NIH 3T3 cells [6]) | aqueous solubility [7] | IC50 (HepG2 cells [8]) | IC50 (mouse NIH 3T3 cells [9]) |
| --- | --- | --- | --- | --- | --- | --- | --- | --- | --- | --- | --- | --- |
| COc1cc(/C=C/C(=O)CC(=O)/C=C/c2ccc(OC(=O)CCCC(=O)NCCCC[C@H](NC(=O)[C@H](Cc3ccc(O)cc3)NC(=O)[C@H](Cc3ccccc3)NC(=O)[C@H](Cc3ccccc3)NC(=O)CNC(=O)[C@@]3(C)CC[C@]4(C)CC[C@]5(C)C(=CC(=O)[C@@H]6[C@@]7(C)CC[C@H](O)C(C)(C)[C@@H]7CC[C@]65C)[C@@H]4C3)C(=O)N[C@@H](CCC(=O)O)C(=O)NCCSSCCNC(=O)CCC(=O)N[C@@H](CCC(=O)O)C(=O)N[C@@H](CCCNC(=N)N)C(=O)NCC(=O)N[C@@H](CC(=O)O)C(=O)O)c(OC)c2)ccc1O [GA-Cur, GA–GFFYK(Cur)E-ss-ERGD] | ≥ 10 mg/mL | about 1105 μg/mL | about 0.75 wt% | 10.7 µM |  |  |  |  |  |  |  |  |
| COc1cc(/C=C/C(=O)CC(=O)/C=C/c2ccc(OC(=O)CCCC(=O)NCCCC[C@H](NC(=O)[C@H](Cc3ccc(O)cc3)NC(=O)[C@H](Cc3ccccc3)NC(=O)[C@H](Cc3ccccc3)NC(=O)CNC(=O)Cc3ccc4ccccc4c3)C(=O)N[C@@H](CCC(=O)O)C(=O)NCCSSCCNC(=O)CCC(=O)N[C@@H](CCC(=O)O)C(=O)N[C@@H](CCCNC(=N)N)C(=O)NCC(=O)N[C@@H](CC(=O)O)C(=O)O)c(OC)c2)ccc1O [Nap-Cur, Nap–GFFYK(Cur)E-ss-ERGD] |  | ~1349 µg/mL |  |  | ≥ 10 mg/mL | 670 ng/well | 641 ng/well | 29.7 µM | 28.7 µM |  |  |  |
| COc1cc(/C=C/C(=O)CC(=O)/C=C/c2ccc(O)c(OC)c2)ccc1O [Cur, Curcumin] |  |  |  |  |  |  |  |  |  | ≈ 11 ng/ml | 26.5 µM | 28 µM |
